# Measured values: the supplement of paper PMC9112550, “Optimization of the antimicrobial peptide Bac7 by deep mutational scanning” (BMC Biology, 2022)
# Tested on: Escherichia coli TOP10
# Test: shrunken log2 fold change of peptide-encoding DNA abundance (4.5 h post-induction vs induction); higher = less antimicrobial activity (less host growth inhibition)
# Details: time post-induction: 4.5 h; library: site-saturation at positions 5, 18, 19, 20
# 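Further: peptides expressed intracellularly from a pBAD plasmid library in pooled LB shake-flask culture, induced with 0.3% L-arabinose, DNA abundance read by NGS, three biological replicates, DESeq2 with apeglm shrinkage.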
sequence,measurement,value
RRIRNRPPRLPRPRPRPTDNPRP,shrunken log2 fold change,-0.353
RRIRARPPRLPRPRPRPESKPRP,shrunken log2 fold change,0.015
RRIRMRPPRLPRPRPRPGQAPRP,shrunken log2 fold change,0.34
RRIRDRPPRLPRPRPRPKHWPRP,shrunken log2 fold change,0.723
RRIRGRPPRLPRPRPRPRACPRP,shrunken log2 fold change,0.847
RRIRLRPPRLPRPRPRPMWNPRP,shrunken log2 fold change,-0.299
RRIRSRPPRLPRPRPRPSYNPRP,shrunken log2 fold change,-0.759
RRIRCRPPRLPRPRPRPHHHPRP,shrunken log2 fold change,-0.815
RRIRQRPPRLPRPRPRPDFTPRP,shrunken log2 fold change,-0.134
RRIRARPPRLPRPRPRPNPCPRP,shrunken log2 fold change,0.0698
RRIRCRPPRLPRPRPRPSSEPRP,shrunken log2 fold change,-0.284
RRIRFRPPRLPRPRPRPDPFPRP,shrunken log2 fold change,-0.341
RRIRLRPPRLPRPRPRPPFMPRP,shrunken log2 fold change,0.086
RRIRCRPPRLPRPRPRPGSRPRP,shrunken log2 fold change,0.235
RRIRRRPPRLPRPRPRPDHPPRP,shrunken log2 fold change,0.0778
RRIRCRPPRLPRPRPRPLMRPRP,shrunken log2 fold change,0.715
RRIRTRPPRLPRPRPRPSPHPRP,shrunken log2 fold change,-0.159
RRIRIRPPRLPRPRPRPWNQPRP,shrunken log2 fold change,0.00812
RRIRSRPPRLPRPRPRPPMCPRP,shrunken log2 fold change,0.00128
RRIRLRPPRLPRPRPRPRSMPRP,shrunken log2 fold change,-0.326
RRIRTRPPRLPRPRPRPGCKPRP,shrunken log2 fold change,-0.161
RRIRNRPPRLPRPRPRPSTWPRP,shrunken log2 fold change,-0.332
RRIRGRPPRLPRPRPRPQEWPRP,shrunken log2 fold change,0.12
RRIRVRPPRLPRPRPRPNMVPRP,shrunken log2 fold change,-0.201
RRIRMRPPRLPRPRPRPRNRPRP,shrunken log2 fold change,0.687
RRIRWRPPRLPRPRPRPNLQPRP,shrunken log2 fold change,0.0402
RRIRERPPRLPRPRPRPQSPPRP,shrunken log2 fold change,-0.062
RRIRIRPPRLPRPRPRPTADPRP,shrunken log2 fold change,-0.063
RRIRPRPPRLPRPRPRPIRSPRP,shrunken log2 fold change,0.00396
RRIRLRPPRLPRPRPRPYTWPRP,shrunken log2 fold change,-0.716
RRIRARPPRLPRPRPRPVPDPRP,shrunken log2 fold change,0.493
RRIRTRPPRLPRPRPRPKMQPRP,shrunken log2 fold change,0.384
RRIRVRPPRLPRPRPRPDSAPRP,shrunken log2 fold change,0.0792
RRIRLRPPRLPRPRPRPNSCPRP,shrunken log2 fold change,0.00169
RRIRWRPPRLPRPRPRPMWIPRP,shrunken log2 fold change,0.135
RRIRPRPPRLPRPRPRPRFQPRP,shrunken log2 fold change,-0.0819
RRIRGRPPRLPRPRPRPSSAPRP,shrunken log2 fold change,0.592
RRIRLRPPRLPRPRPRPPVYPRP,shrunken log2 fold change,0.0309
RRIRNRPPRLPRPRPRPFFMPRP,shrunken log2 fold change,0.0606
RRIRWRPPRLPRPRPRPCERPRP,shrunken log2 fold change,-0.0115
RRIRDRPPRLPRPRPRPPYEPRP,shrunken log2 fold change,-0.0831
RRIRCRPPRLPRPRPRPVVTPRP,shrunken log2 fold change,-0.0488
RRIRSRPPRLPRPRPRPREEPRP,shrunken log2 fold change,0.369
RRIRGRPPRLPRPRPRPFLKPRP,shrunken log2 fold change,0.186
RRIRKRPPRLPRPRPRPSLWPRP,shrunken log2 fold change,0.187
RRIRGRPPRLPRPRPRPRAWPRP,shrunken log2 fold change,1.31
RRIRDRPPRLPRPRPRPGYVPRP,shrunken log2 fold change,-0.153
RRIRRRPPRLPRPRPRPFELPRP,shrunken log2 fold change,-0.249
RRIRCRPPRLPRPRPRPHLIPRP,shrunken log2 fold change,0.282
RRIRKRPPRLPRPRPRPCRLPRP,shrunken log2 fold change,-0.298
RRIRQRPPRLPRPRPRPPPHPRP,shrunken log2 fold change,0.737
RRIRWRPPRLPRPRPRPSRCPRP,shrunken log2 fold change,0.0613
RRIRERPPRLPRPRPRPRCAPRP,shrunken log2 fold change,0.228
RRIRYRPPRLPRPRPRPFSMPRP,shrunken log2 fold change,-0.00208
RRIRYRPPRLPRPRPRPHFVPRP,shrunken log2 fold change,-0.182
RRIRTRPPRLPRPRPRPEFIPRP,shrunken log2 fold change,0.0102
RRIRCRPPRLPRPRPRPAHQPRP,shrunken log2 fold change,0.133
RRIRRRPPRLPRPRPRPNWVPRP,shrunken log2 fold change,0.00352
RRIRGRPPRLPRPRPRPHSFPRP,shrunken log2 fold change,2.05
RRIRVRPPRLPRPRPRPEHNPRP,shrunken log2 fold change,-0.244
RRIRERPPRLPRPRPRPRRSPRP,shrunken log2 fold change,-0.021
RRIRYRPPRLPRPRPRPFFGPRP,shrunken log2 fold change,-0.225
RRIRLRPPRLPRPRPRPEILPRP,shrunken log2 fold change,0.0325
RRIRCRPPRLPRPRPRPFCHPRP,shrunken log2 fold change,-0.142
RRIRRRPPRLPRPRPRPTRRPRP,shrunken log2 fold change,0.853
RRIRPRPPRLPRPRPRPASNPRP,shrunken log2 fold change,-0.231
RRIRTRPPRLPRPRPRPVWQPRP,shrunken log2 fold change,0.256
RRIRTRPPRLPRPRPRPYAVPRP,shrunken log2 fold change,-0.331
RRIRNRPPRLPRPRPRPNDQPRP,shrunken log2 fold change,-0.309
RRIRGRPPRLPRPRPRPNCGPRP,shrunken log2 fold change,0.0147
RRIRFRPPRLPRPRPRPQLYPRP,shrunken log2 fold change,-0.588
RRIRIRPPRLPRPRPRPTSDPRP,shrunken log2 fold change,-0.245
RRIRERPPRLPRPRPRPACNPRP,shrunken log2 fold change,-0.102
RRIRCRPPRLPRPRPRPRVMPRP,shrunken log2 fold change,0.278
RRIRGRPPRLPRPRPRPVRWPRP,shrunken log2 fold change,0.965
RRIRPRPPRLPRPRPRPTDNPRP,shrunken log2 fold change,-0.134
RRIRERPPRLPRPRPRPCDVPRP,shrunken log2 fold change,-0.017
RRIRKRPPRLPRPRPRPDQTPRP,shrunken log2 fold change,-0.0185
RRIRGRPPRLPRPRPRPICTPRP,shrunken log2 fold change,1.08
RRIRLRPPRLPRPRPRPCMKPRP,shrunken log2 fold change,-0.101
RRIRCRPPRLPRPRPRPPRIPRP,shrunken log2 fold change,0.48
RRIRLRPPRLPRPRPRPDEYPRP,shrunken log2 fold change,-0.000921
RRIRWRPPRLPRPRPRPLIMPRP,shrunken log2 fold change,-0.0185
RRIRCRPPRLPRPRPRPFTVPRP,shrunken log2 fold change,-0.456
RRIRERPPRLPRPRPRPNPVPRP,shrunken log2 fold change,-0.424
RRIRERPPRLPRPRPRPQADPRP,shrunken log2 fold change,-0.171
RRIRNRPPRLPRPRPRPCCHPRP,shrunken log2 fold change,-0.00931
RRIRQRPPRLPRPRPRPHNCPRP,shrunken log2 fold change,0.113
RRIRDRPPRLPRPRPRPSIDPRP,shrunken log2 fold change,-0.145
RRIRSRPPRLPRPRPRPTTIPRP,shrunken log2 fold change,0.127
RRIRLRPPRLPRPRPRPAVIPRP,shrunken log2 fold change,-0.339
RRIRARPPRLPRPRPRPFGSPRP,shrunken log2 fold change,-0.0315
RRIRGRPPRLPRPRPRPWLPPRP,shrunken log2 fold change,-0.0942
RRIRCRPPRLPRPRPRPRFQPRP,shrunken log2 fold change,0.234
RRIRQRPPRLPRPRPRPCFTPRP,shrunken log2 fold change,-0.684
RRIRNRPPRLPRPRPRPKTKPRP,shrunken log2 fold change,-0.0202
RRIRRRPPRLPRPRPRPMQYPRP,shrunken log2 fold change,-0.126
RRIRSRPPRLPRPRPRPQHAPRP,shrunken log2 fold change,-0.153
RRIRWRPPRLPRPRPRPCHLPRP,shrunken log2 fold change,-0.211
RRIRWRPPRLPRPRPRPTSWPRP,shrunken log2 fold change,0.249
RRIRIRPPRLPRPRPRPIGKPRP,shrunken log2 fold change,-0.13
RRIRARPPRLPRPRPRPQSVPRP,shrunken log2 fold change,-0.037
RRIRARPPRLPRPRPRPCMEPRP,shrunken log2 fold change,0.0522
RRIRARPPRLPRPRPRPWCRPRP,shrunken log2 fold change,0.0486
RRIRQRPPRLPRPRPRPWVIPRP,shrunken log2 fold change,-0.134
RRIRWRPPRLPRPRPRPVDKPRP,shrunken log2 fold change,-0.0524
RRIRWRPPRLPRPRPRPEIFPRP,shrunken log2 fold change,0.0932
RRIRMRPPRLPRPRPRPTTWPRP,shrunken log2 fold change,0.745
RRIRGRPPRLPRPRPRPGDLPRP,shrunken log2 fold change,2.41
RRIRTRPPRLPRPRPRPNPMPRP,shrunken log2 fold change,-0.383
RRIRCRPPRLPRPRPRPWWDPRP,shrunken log2 fold change,0.00335
RRIRKRPPRLPRPRPRPQWVPRP,shrunken log2 fold change,0.0548
RRIRGRPPRLPRPRPRPFGTPRP,shrunken log2 fold change,0.196
RRIRPRPPRLPRPRPRPLKEPRP,shrunken log2 fold change,-0.228
RRIRVRPPRLPRPRPRPYYLPRP,shrunken log2 fold change,-0.286
RRIRWRPPRLPRPRPRPLDVPRP,shrunken log2 fold change,0.00856
RRIRSRPPRLPRPRPRPGDRPRP,shrunken log2 fold change,-0.267
RRIRPRPPRLPRPRPRPQKDPRP,shrunken log2 fold change,-0.132
RRIRVRPPRLPRPRPRPYTNPRP,shrunken log2 fold change,-0.656
RRIRNRPPRLPRPRPRPVVRPRP,shrunken log2 fold change,0.12
RRIRLRPPRLPRPRPRPCISPRP,shrunken log2 fold change,-0.177
RRIRGRPPRLPRPRPRPELLPRP,shrunken log2 fold change,0.334
RRIRKRPPRLPRPRPRPMSQPRP,shrunken log2 fold change,-0.0623
RRIRHRPPRLPRPRPRPIPHPRP,shrunken log2 fold change,-0.664
RRIRIRPPRLPRPRPRPMFGPRP,shrunken log2 fold change,-0.0865
RRIRIRPPRLPRPRPRPNPRPRP,shrunken log2 fold change,-0.225
RRIRERPPRLPRPRPRPTFEPRP,shrunken log2 fold change,0.144
RRIRFRPPRLPRPRPRPHQPPRP,shrunken log2 fold change,0.575
RRIRKRPPRLPRPRPRPLMEPRP,shrunken log2 fold change,0.124
RRIRMRPPRLPRPRPRPCYSPRP,shrunken log2 fold change,-0.711
RRIRERPPRLPRPRPRPVKIPRP,shrunken log2 fold change,-0.181
RRIRDRPPRLPRPRPRPQVGPRP,shrunken log2 fold change,0.132
RRIRDRPPRLPRPRPRPFNVPRP,shrunken log2 fold change,-0.00548
RRIRKRPPRLPRPRPRPCRPPRP,shrunken log2 fold change,0.0439
RRIRMRPPRLPRPRPRPILGPRP,shrunken log2 fold change,-0.00884
RRIRDRPPRLPRPRPRPIGAPRP,shrunken log2 fold change,-0.173
RRIRKRPPRLPRPRPRPFTKPRP,shrunken log2 fold change,-0.0833
RRIRIRPPRLPRPRPRPRDFPRP,shrunken log2 fold change,-0.157
RRIRVRPPRLPRPRPRPYIFPRP,shrunken log2 fold change,-0.864
RRIRARPPRLPRPRPRPRHKPRP,shrunken log2 fold change,0.316
RRIRCRPPRLPRPRPRPYHKPRP,shrunken log2 fold change,-0.743
RRIRTRPPRLPRPRPRPYCEPRP,shrunken log2 fold change,-0.416
RRIRGRPPRLPRPRPRPSTRPRP,shrunken log2 fold change,0.114
RRIRIRPPRLPRPRPRPFEIPRP,shrunken log2 fold change,-0.0373
RRIRNRPPRLPRPRPRPSIYPRP,shrunken log2 fold change,-0.449
RRIRWRPPRLPRPRPRPPWFPRP,shrunken log2 fold change,0.218
RRIRKRPPRLPRPRPRPMRNPRP,shrunken log2 fold change,1.32
RRIRMRPPRLPRPRPRPMVAPRP,shrunken log2 fold change,0.12
RRIRVRPPRLPRPRPRPYTWPRP,shrunken log2 fold change,-0.364
RRIRFRPPRLPRPRPRPVVRPRP,shrunken log2 fold change,0.153
